Source: US6936690 (Takeda / Millennium, dated 2005)
Positions count from the first letter of the chain named. Names may count otherwise. Each block holds one binder with its values, some of them ahead of it.

Tests used:
[1] = target: T1, Myc-tagged CARD-14 (full-length CARD-14 with C-terminal Myc epitopes, pCMV-Tag 5A) (human, UniProt Q9BXL6 1-1004); test: co-localization by immunofluorescence in Rat-1 cells
T1 construct: Expressed in 293T cells (co-immunoprecipitation, Bcl-10 phosphorylation) and Rat-1 cells (co-localization)
T1 sequence: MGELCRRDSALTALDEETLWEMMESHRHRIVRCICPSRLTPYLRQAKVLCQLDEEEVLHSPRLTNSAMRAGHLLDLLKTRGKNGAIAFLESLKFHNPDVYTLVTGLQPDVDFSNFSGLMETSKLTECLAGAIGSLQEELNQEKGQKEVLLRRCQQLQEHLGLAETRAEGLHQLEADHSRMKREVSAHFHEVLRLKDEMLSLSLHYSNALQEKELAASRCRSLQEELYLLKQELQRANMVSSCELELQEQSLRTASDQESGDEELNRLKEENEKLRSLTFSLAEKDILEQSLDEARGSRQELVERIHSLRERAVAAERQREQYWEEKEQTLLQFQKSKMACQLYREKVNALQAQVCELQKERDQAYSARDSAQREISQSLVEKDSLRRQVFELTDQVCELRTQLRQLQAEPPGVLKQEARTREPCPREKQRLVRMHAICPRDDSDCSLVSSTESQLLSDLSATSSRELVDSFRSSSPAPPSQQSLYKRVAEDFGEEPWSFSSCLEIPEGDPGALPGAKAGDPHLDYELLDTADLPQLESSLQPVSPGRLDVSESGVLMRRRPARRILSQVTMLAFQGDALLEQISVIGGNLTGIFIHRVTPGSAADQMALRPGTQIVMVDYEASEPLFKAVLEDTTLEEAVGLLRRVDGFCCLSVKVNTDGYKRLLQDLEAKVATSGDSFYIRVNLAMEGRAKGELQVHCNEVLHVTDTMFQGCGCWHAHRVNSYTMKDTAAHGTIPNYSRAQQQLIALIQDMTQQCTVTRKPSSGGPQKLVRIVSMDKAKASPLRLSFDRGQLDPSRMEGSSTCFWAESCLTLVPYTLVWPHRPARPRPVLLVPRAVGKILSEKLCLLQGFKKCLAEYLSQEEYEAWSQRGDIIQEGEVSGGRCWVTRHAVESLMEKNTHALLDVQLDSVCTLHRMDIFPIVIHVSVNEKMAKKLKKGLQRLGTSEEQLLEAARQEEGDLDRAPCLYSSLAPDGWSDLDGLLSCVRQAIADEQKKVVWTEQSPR
Procedure: To further confirm the interaction between CARD-14 and Bcl-10, co-localization experiments were performed with full-length CARD-14. In these studies, Rat-1 cells were transfected in PDL-coated glass chamber slides (BioCoat, Becton-Dickinson Labware) with plasmids expressing HA-tagged Bcl10 and Myc-tagged CARD-14 using FuGENE-6 (Roche Molecular Biochemicals) for 20 hours. Cells were fixed in 4% paraformaldehyde, permeabilized and blocked in buffer containing 0.4% Triton X-100, and sequentially incubated with primary and secondary antibodies: rabbit anti-HA polyclonal Y-11 (Santa Cruz Biotechnology), mouse anti-Myc monoclonal 9E10 (Oncogene Research Products), Alexa-488 Goat anti-mouse IgG (Molecular Probes) and Alexa-594 Goat anti-rabbit IgG (Molecular Probes). No cross-reactivity was observed between any of the antibodies. Images were acquired using a Nikon T200 microscope with a 60× oil objective and an Orca100 digital camera (Hammamatsu, Inc.) driven by MetaMorph software (Universal Imaging Corp.). Final images were prepared using Adobe PhotoShop.

[2] = target: T2, CARD-14 protein labeled with 35S-methionine (human, UniProt Q9BXL6 1-1004, limits assumed, labeled with 35S-methionine); test: GST pull-down on glutathione-sepharose, autoradiography
T2 construct: also called radiolabeled CARD-14
T2 sequence: T1 sequence
Procedure: The interaction of radiolabeled CARD-14 with GST-Bcl-10 in vitro was also examined. Bcl-10 wild type and L41R mutant were expressed in DH5 alpha bacteria as GST fusion proteins and equal amounts of protein were immobilized on glutathione-sepharose (Amersham-Pharmacia). An equal amount of CARD-14 protein, labeled with ^35S-methionine, was incubated with the protein bound sepharose beads in 100 μl of binding buffer (50 mM Tris-Cl pH 7.6, 120 mM NaCl, 0.5% Brij and protease inhibitors) for three hours. The beads were washed four times with the same buffer and boiled in SDS sample buffer. The proteins were then resolved on a 10% SDS gel and visualized by autoradiography.

binding result [1]: binds
B1: HA-tagged Bcl10 (other, UniProt O95999 1-233, looked up, not shown: small tags and cut ends)
chain: MEPTAPSLTEEDLTEVKKDALENLRVYLCEKIIAERHFDHLRAKKILSREDTEEISCRTSSRKRAGKLLDYLQENPKGLDTLVESIRREKTQNFLIQKITDEVLKLRNIKLEHLKGLKCSSCEPFPDGATNNLSRSNSDESNFSEKLRASTVMYHPEGESSTTPFFSTNSSLNLPVLEVGRTENTIFSSTTLPRPGDPGAPPLPPDLQLEEEGTCANSSEMFLPLRSRTVSRQ
notes: Expressed in Rat-1 cells (co-localization) and 293T cells (phosphorylation); also called HA-Bcl-10

binding result [2]: no binding
B2: GST-Bcl-10 L41R mutant (other, UniProt O95999 1-233, looked up)
chain: B1 chain with L41R
notes: Expressed in DH5 alpha bacteria and immobilized on glutathione-sepharose; also called variant of Bcl-10 with a point mutation (L41R); not shown: GST fusion partner
